Experiment: soluble on expression in E. coli; label from the status in PepcDB or PDB records

Sequence | soluble on expression in E. coli
SNAMGEAATKSDRQQNQTRLWLNILRLHGLVFGDLNRQLLDETGLSLAKFDAMAQLARNPDGLSMGKLSGALKVTNGNVSGLVNRLIKDGMVVKAMSADDRRSFSAKLTDAGLTTFKQASEAHNRILAELLRAVSDQDMVEASAALRGILESMQTGASLD | soluble
EVQLLEESGPGLVQPSQSLSITCTVSGFSLTSYGVHWVRQSPGKGLEWLGVIWSGGSTDYNAAFISRLSISKDNSKSQVFFKMNSLQADDTAIYYCARNRGYSYAMDSWGQGTSVTVSSAKTTPPSVYPLAPGSAAQTNSMVTLGCLVKGYFPEPVTVTWNSGSLSSGVHTFPAVLQSDLYTLSSSVTVPSSTWPSETVTCNVAHPASSTKVDKKIVPRDCTS | soluble
MAHHHHHHMRCHVMGPSGHKSEYHCATLLGNWQEERRSFGFVDPAREPLSYMTVYKDSFRGTKTDEELANAKPPSCFHENALPELLFYHNEITNPPKNLLTVNELSYTNAKGGEEVNTLHDILHKEGVSKKRDKTIAIRRELGFIGYGAPHEGSLLASKGATATPLDYTMRCGTTTDQNFLESTRGGCYKPPVIPAIGRMQEKQRLLTTKNVTVDATGEYLKDNIDEYPATSSECWGMFMKFTDNMKGKKLRECYED | not soluble
MGSDKIHHHHHHMKVEVNSQALADAVAWTTRVIDARPATPILAGIRLEAIDGTLQLSAFNYAISARHHIEAGVDEAGSVLVLGKLLADITKSLPAAKTYLSTDGSTMTITSGKSTFTMQLMPESEYPDLPVVPTKLGQVDSPTFAQAVNQASVAVSREENRPVLTGIRVQFQGDKVIMSSTDRFRLARSSFTWTPEDATISTTALVRGSLLRDMARSLDEHQNVTIDFDADNPSLLGFENAGRVSTSQLIDGEFPAVDRLYADEYPIHAVINKQALIDAIKRVSLVAERNAPIRMVFSGQELTLSAGTADEAQAKEILDIDMDGEDITVAFNPSYLVDGLSAISEPFVRMKMTTAVKPVEFNGQQEADSDESMDYRYLLVPMRFNN | not soluble
SNAVRGFLIVGNKAFTQPFSLNDLPGAGRMDVLCRCTSQALFISHGIRRDVEVYLLLLGPPSPPKSILIKGDEVRRMSPDERNVAGHIKKALAVECGKSWKKVHSGVYVSRKGLEELIEELSEKYSIIYLKEDGVDISNAQLPPNPLFVIGDHEGLTEEQEKVVERYAALKLSLSPLSLLAEQCVVIAHHHLDRLQF | soluble
MGSDKIHHHHHHMVIELKNEKVTVQFKEFGGALSSIKDQDGIEYLWQGNPAYWSSQAPVLFPICGSLRNDKGIYTSKKHSHRYGSIPRHGLVRKKNFRFEQLGKDSVVFTITPDKEMLMQYPYHFELKIIYTLKHTTIRTEYQVINKEKESIMPYFIGGHPGLNCPLFAGDRYEDYYLEFEKEETCTVPKSFPDTGLLDLQDRKIFLKGQKYLDLDYSLFTHDAITLDNLQSRSVSLRSKNHGGGLRLDFADFPYLILWSTANKSPFIALEPWSGLSTAVDESDYFEEKRNVSFVEPGQFDRNYFDITVL | not soluble
MATTQQSSTKQDILEYLLKEVQATSLELAEVLEVSPQAIRRHLKDLETDNLVVYFVPEQVGMGRPQHLYQLSQRGREQLQRNVNRLSDGYGDFAVSLLDTLAATVGREQVKTILQKQWERKAQEYRERVGTGSLQERVANLVELRKAEGFMAEFYPVESDSAHSERFIFMEHTCAISNVAESFPSICGHELEMFAAILPDCTVKRTHWLIDGEHRCGYLVQRSSGVTGVTEVEN | not soluble
VDSVYRTRSLGVAAEGIPDQYADGEAARVWQLYIGDTRSRTAEYKAWLLGLLRQHGCHRVLDVACGTGVDSIMLVEEGFSVTSVDASDKMLKYALKERWNRRKEPAFDKWVIEEANWLTLDKDVPAGDGFDAVICLGNSFAHLPDSKGDQSEHRLALKNIASMVRPGGLLVIDHRNYDYILSTGCAPPGKNIYYKSDLTKDITTSVLTVNNKAHMVTLDYTVQVPGAGRDGAPGFSKFRLSYYPHCLASFTELVQEAFGGRCQHSVLGDFKPYRPGQAYVPCYFIHVLKKTG | soluble
MKMAKSEDERLAEEWAAALGEDPNAPDIDVDEILAAPLEELKNTAPPITDDERRKLDTIMDIPVTISMEVGRSKISIRNLLQLNQGSVVELDRIAGESLDVMVNGTLIAHGEVVVVNDKFGIRLTDVISQTERIKKLR | not soluble
MSVLRRLTWLAFPLLSMAFNVQANTAPAQLNKAELEQRFAKLGLQVEEIKTSDINGLLEVQTSGGVLFSSPDGEHFIAGTLYALDGNGGYVDVLAKRQAPLNAKKIAALQDSMIEFKAPNEKYAITVFTDITCGYCVRLHSQIKEYNDLGITVRYLAYPRQGPQGQVADQMAAIWCSNDPKAAMHDAKVNRKTITADKDIAQCQKTIAQHYMLGHELGISGTPAIFLPNGEMVGGYLPAPQLLQRLQATQ | not soluble
MGSDKIHHHHHHMIPDKSVEILLGELSRDIAQRTPGTGDFPTAVEGLELFRRNEPAPPVSCLVPPSIVLVADGAKIMWVGGEPYEYNAEKFLITSLDLPASSEILQASTSQPCVGVAYKLDQRVLMELIAQGSLPPVKKRDAGTSVGIGTITDALLEPFCRLLSLLDEPEAIPVLGPLIQREIHYRLLMSDQSDHLRQIAAVDGHGYRIGKAIDWLKTNIASPLRVEELASRVQMSTPSFHHHFRQLAGMSPLRYQKWLRLNEARRLMLNEHYDVTTAAYAVGYESLSHFSREYTRMFGESPKRDITELRKSAGKL | not soluble
MVALFQHSPYWQADGYGHSHRLKCQHFKQHRQYNDKLEISSNLGPQFNALLNILLNIVHPTLSHDTRRSKGLKIEGLLQSRELGNSWTVTMCIWVLKALQSSAPNKPLDWLDPMPCFQNLLARGTP | soluble
GMANKVEHRLSEQQMKALTDLPLVFLITHDQSKSWPITHAISWVYAKDETTIRFAIEADSLLVKTLADHPVFTLIFFADQSTYSLTCTDVAAWETTARLPLKVALYEGQIKEVRDILFYGAAVSDRPRVYKTYDEAAAMQLDQQIQDILKG | soluble
MDSGFTLRAPRNDKRRNPMPAILGTGEHRYRVVENFAKLPDGWQLTDVAAVAVDSLDRVYVFNRGAHPMVVLDREGNFLRSWGEGLFSRAHGLHIDADDNLYCTDDGDHTVRKCTSDGKVLLTIGIPAKPAPFMSGEPFHRCTHTALSPKGEIYVSDGYGNARVHKFTPDGKLIKSWGEPGTDPGQFNIVHNIATDSDGWVYVADRENHRVQVFNGEGKYETQWNNLHRPCALCCCGGRSPTFVIGELGPGLDINRNVPNLGPRLSIVDAKGNRIARLGGEEGPGVASGKFLAPHGIALDSKGDIYVGEVGVTNWATSFPDQEMPAVVRATRCLQKLERVRELEHHHHHH | not soluble
MNKGRIIQVMGPVVDIQFESGQLPDIYNAITIERPQGGTLTVEAAVHLGDNVVRCVAMASTDGLVRGLEAVDTGAPISVPVGKATLGRVFNVLGEPIDEQGEVNAEERHPIHRPAPEFEELSTADEILETGIKVIDLLAPYAKGGKIGLFGGAGVGKTVLIQELINNVAQEHGGLSVFAGVGERTREGNDLYHEMKDSGVISKTSMVFGQMNEPPGARLRVALTGLTMAEYFRDREGQDVLLFIDNIFRFTQAGSEVSALLGRMPSAVGYQPTLATEMGQLQERITSTKKGSITSIQAIYVPADDYTDPAPATTFAHLDATTNLERKLAEMGIYPAVDPLASTSRILSPAVVGEEHYRVARGVQQVLQRYNDLQDIIAILGMDELSDEDKLIVARARKIQRFLSQPFHVAEQFTGMPGKYVPVKETVRGFKEILEGKHDNLPEEAFYMVGTIDEAVEKAKKL | soluble
MRTFDDMLSKQLQDEEFKKEYDAIQPEMDVIRAIVDARTSQNMTQKELAERTGINQADISKLENGTRNPSVNLLKRLADAEMVLVRGSKDNVKPTQND | not soluble
MGSDKIHHHHHHVSTSVTKRPLTLVLASPRGFCAGVDRAIHIVERALEKYGAPVYVRHEIVHNRFVVESLAQKGAVFVEELDEVPDEAAVVFSAHGVPKTVPAEADRRGLTSLDATCPLVTKVHREAELHHAMGRQIIMIGHAGHPEVIGTIGQVPDGTVLLVGTPEEAEKVAPKNASMLAYITQTTLSVDDAAAVTEVLQRRFPEIVGPKREDICYATTNRQAAVKTIAPKCEALMVIGSPNSSNSSRLVEVAARAGCARSVLVQRAAEVDWSLLDGVDRLGITAGASAPEILVEEVVAAARERFDVTIEEIRVTTETVTFKLPQALSE | not soluble
RKIFTNKCERAGCRQREMMKLTCERCSRNFCIKHRHPLDHDCSGEGHPTS | soluble
AIAPDESAQVRFLIVGRTGWIANMVAELLEQRGERYAFASFRLEQREACELELDALRPQRVLNCAGVTGRPNVDWCEDHRRETVRSNVLGVLNLADCCASRGIHLTNFATGCLYHYDDGEHRPTAEGGRPFTEDDPPNFFGSYYSRTKAMVEELLRSAFDNVLILRLRMPVSDDLSPRSFVAKIARYEKVVNIPNSMTVLTELLPVALDMSERGLTGVYNFTNPGSISHNEVLELYRKYIDPKFQWKNFTLEEQAKILKAGRSNCELDVRKLLRDNPGAQIREVHAAMEEVFRRMQAKGVKPLAAP | soluble
MSGPEELEAGASDSNAGGSSRQGQEQERVEPVLEGVPQPNDQESADEDLTARQPPIQPQVPNASDNLQVPPNLEYLIAVNPSQLITTIQIGAEVARLEELEDEYRQELELIRMTESLGEELLQKENELRSRAGYLGRLDVLENRRNYEDEAAENLAIRTVQNRVLLLRRARAELYERERIARKTFIWRLRRFKNPTDQSVNTWMETLNDRLNRVANSWERRREPHEQAIRDYERLVATRQRTEEDRRRERASNRAGPSNQEDYDSEDEDEHHVDELPDLLELLSLVVNPVIGGGGISTNRAEYLNPRGTEGLGADDPDLNDSGGTVYQSDEEESEDEAEIDHQEGPSNWRPKRPRRDDDEGGSGSSASMWNAPSTSSQALGRSC | not soluble
MNRARDWLEQARHNLRHAQGSLGLGDYAWACFAAQQAAEAALKGLHLARGQVAWGHSILDLLADLPEDVDVPEDLVEAAKVLDKYYIPTRYPDAHPAGPAARHYTRLEAEEALDLAQKILAFVEEKL | soluble
MGSDKIHHHHHHMHVVELRFECFDNTTITAAERAINGLLEAYRANGQVLGREFAVAFNEGEFRVRLLLPEKSSLAKRFNSPWVNYALEELTQAKLLHPREKYIGQDINSEVSSTETPSWQLLYTSYVHMCSPLRNGDTLQPIPLYQIPATFNGDHKRVIKWQTEWQACDELQMAAATKAEFAALDELSQCDSDLFRRGWDLRGRIEYLTKIPTYYYLYRVGGESLAAEQQRPCPRCGNTHWLLETPLLDLFHFRCDNCRIVSNISWDHL | not soluble
MGSDKIHHHHHHMMQLLVTGATGFVGKTLCSALRRQSFPVKAIGRAGTIRADALGDQVASIDGQTDWSLILDGINAVIHLAARVHVMREQLADPLAAYRETNVEGTLNLARQAAKAGVKRFVFISSIKVNGEQTLPGKPFTAYDVPAPEDAYGISKFEAEQGLLALARETGMDVVVIRPPLVYGPGVKGNFASMMKLVKSGIPLPLGAIHNQRSLVAIDNLVNLIVTCIDHPAAANQVFLVSDGEDLSTSDLLRRLAKAAGVSSRLMPVSARWLEMGLRMCGKRLIAQRLLGSLQVDISKTRELLGWVPPISVDEGLKRCFSTKG | not soluble
MAATFPLSAGTYSINGRKYRKTAYNLKADTSFDLNTDTTFADTPDIYEDEASADCFAPPGLPELRKRAAKAKIVAKAVETSSKEPEPTEDDRIKVIGGKKWISSINVAPCFIGKLIGTNRRTLNSLENETQCRVKTPRRNENIACEISSIVSLECVQRCLDRLEIFIDDSRKTARVNHFVALPCDQHEVQENFNIFKQMVMESDHFDSSCKNSQLFTKPTRLHLTLSVARIFDDMDLQKAVGAFEILEKEIRQIKDSKPLIADIQGIDMMNDDPSQVFVLYAKVKGDKVQEVANYVNRRLIELGVSSKNEHDNGSDAVKLHMTLMNSRYVTQSEKSGKSKEAALFDAKQVLEDLKDSYFGTFELKEVNFDVKKFKQRI | not soluble
